# Publication doi:10.1101/2019.12.19.882373
# Columns and labels:
# Assay in all cases: FRET or BRET
# [1] = target: CipA cohesin 7 module (c7A) (C. thermocellum) (UniProt Q06851)
# [2] = target: CipA cohesin 2 module (c2A), G144C, labelled with Cy3B (C. thermocellum)
# [3] = target: cohesin module 7 of scaffoldin CipC (c7C) (C. cellulolyticum)
# [4] = target: cohesin 1 from scaffoldin CipC (c1C) (C. cellulolyticum)
# [5] = target: CipA cohesin 1 module (c1A) (C. thermocellum) (UniProt Q06851)
Substance,fraction of complexes in binding mode B1 [1],fraction of complexes in binding mode B1 [2],fraction of complexes in binding mode B1 (cyclophilin-treated) [2],fraction of complexes in binding mode B1 [3],fraction of complexes in binding mode B1 [4],fraction of complexes in binding mode B1 [5]
dockerin celS single residue clasp mutant Y5A (celS_Y5A) (domain or fragment),–,0.42,0.2,–,–,–
dockerin from cellulase A (CelA) (domain or fragment),0.48,0.37,–,–,–,–

# Results, then the substance that gave them:
fraction of complexes in binding mode B1 [1],fraction of complexes in binding mode B1 [2],fraction of complexes in binding mode B1 (cyclophilin-treated) [2],fraction of complexes in binding mode B1 [3],fraction of complexes in binding mode B1 [4],fraction of complexes in binding mode B1 [5],Substance
0.58,0.43,–,–,–,–,"dockerin CelS (type-I dockerin module of cellulase S), D63C, labelled with Alexa Fluor 647 (domain or fragment)"
–,–,–,0.45,0.26,–,dockerin from the cellulase 5A of C. cellulolyticum (CcCel5A) (domain or fragment)
0.69,0.89,–,–,–,0.59,"swapped version of dockerin celS (celS_Swap), helices H1 and H3 exchanged (domain or fragment)"
